Test results reported in the supplement of paper PMC7125110.
± gives the standard error. This sample holds only a part of the variants without activity.

B1: glmS ribozyme (parent)
chain: AUAAAAGCGCCAGAACUACAGAAAUGUAGUUGACGAGGAGGAGGUUUAUCGAAUUUUCGGCGGAUGCCUCCAAA

Experiments:
Conditions in all cases: with glucosamine-6-phosphate
[1] = variants of: B1; experiment: self-cleavage kobs at 40 uM GlcN6P; higher = faster cleavage; RNA array
Method in brief: (§1)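 Weighted Michaelis–Menten fits across concentrations supplied kcat and KM, based on kobs from one- or two-exponential decay fits to normalised per-tile medians. The data came from barcoded ribozyme variants transcribed in situ by E. coli RNA polymerase on sequenced MiSeq chips and tracked at 37 °C by a hybridised Cy3 probe. Glucosamine-6-phosphate (40 μM to 10 mM) in HEPES/KCl/Mg(OAc)2 buffer was flowed in.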

[2] = variants of: B1; experiment: self-cleavage kobs at 160 uM GlcN6P; higher = faster cleavage; RNA array
Method in brief: as §1

[3] = variants of: B1; experiment: self-cleavage kobs at 10000 uM GlcN6P; higher = faster cleavage; RNA array
Method in brief: as §1

[4] = variants of: B1; experiment: self-cleavage kobs at 640 uM GlcN6P; higher = faster cleavage; RNA array
Method in brief: as §1

[5] = variants of: B1; experiment: self-cleavage kobs at 2500 uM GlcN6P; higher = faster cleavage; RNA array
Method in brief: as §1

Variant | self-cleavage kobs at 40 uM GlcN6P [1] [s⁻¹] | self-cleavage kobs at 160 uM GlcN6P [2] [s⁻¹] | self-cleavage kobs at 10000 uM GlcN6P [3] [s⁻¹] | self-cleavage kobs at 640 uM GlcN6P [4] [s⁻¹] | self-cleavage kobs at 2500 uM GlcN6P [5] [s⁻¹]
AUAAAAGCGCCAGAUCUACAGAAAUGUAGUUGACGAGGAGGAGGUUUAUCGUAUUUUCGGCGGAUCCCUCCAAA | < 1e-05 | < 1e-05 | – | – | –
AUAAAAGCGCCAGAUCUACAGAAAUGUAGUUGACGAGGAGGAGGUUUAUGGAAUUUUCGGAGGAUGCCUCCAAA | 0.000142 ± 3e-05 | – | 7.29e-05 ± 1.7e-05 | – | –
AUAAAAGCGCCAGAUCUACAGAAAUGUAGUUGACGGGGAGGAGGUUUAUCGAAUUUUCGGCGGAUGCCUCCAAA | < 1e-05 | – | < 1e-05 | < 1e-05 | –
AUAAAAGCGCCAGAGCUACAGAAAUGUAGUUGACGAGGAGGAGGUUUAGCGAAUUUUCGGCGGAUGCCUCCAAA | 4.65e-05 ± 2e-05 | 0.000118 ± 3.1e-05 | 0.00148 ± 0.00024 | 0.000228 ± 4.3e-05 | 0.000499 ± 0.0001
AUAAAAGCGCCAGAUCUACAGAAAUGUAGUUGACGAGGAGGAGGUUUAUCGUAUUUUCGGCGGAUGCCUACAAA | < 1e-05 | – | – | – | –
AUAAAAGCGCCAGAGCUACAGAAAUGUAGUUGACGAGGAGUAGGUUUAUCGAAUUUUCGGCGGAUGCCUCCAAA | 0.000204 ± 2.3e-05 | 0.000282 ± 4.5e-05 | – | 0.000507 ± 8.7e-05 | 0.00155 ± 0.00029
AUAAAAGCGCCAGAGCUACAGAAAUGUAGUUCACGAGGAGAAGGUUUAUCGAAUUUUCGACGGAUGCCUCUAAA | < 1e-05 | – | – | – | –
AUAAAAGCGCCAGAGCUACAGAAAUGUAGUUGACGAAGCGGAGGUUUAUCGAAUUUUCGGUGGAUGCCGCCAAA | < 1e-05 | – | – | – | –
AUAAAAGCGCCAGAGCUACAGAAAUGUAGUUGACGAGGAGGAGGUUUAUCGAAUUUUCGGCGGAUGCAUUCAAA | < 1e-05 | – | – | – | –
AUAAAAGCGCCAGAGCUACAGAAAUGUAGUUGAAGAGGAGGAGGUUUAUCGAAUUUUCGGCUGAUGCCUCCAAA | < 1e-05 | – | < 1e-05 | – | –
AUAAAAGCGCCAGAGCUACAGAAAUGUAGUUGACGAGGAGGAGGUUUAUCGAAUUUUCGGCGGAUGUCUCCAAA | 0.000329 ± 5.2e-05 | 0.000674 ± 0.00013 | 0.00828 ± 0.0017 | 0.00169 ± 0.00028 | 0.00538 ± 0.0014
AUAAAAGCGCCAGAGCUACAGAAAUGUAGUUUACGAGGAGGAGGUUUAUCGAAUUGUCGUCGGAUGCCUCCAAA | < 1e-05 | – | – | – | –
AUAAAAGCGCCAGAUCUACAGAAAUGUAGUUGUCGAGGAGGAGGUUUAUCGAAUUUUCGGGGGAUGCCUCCAAA | < 1e-05 | – | – | – | –
AUAAAAGCGCCAGAGCUACAGAAAUGUAGUUGACGAGGAGGAGGUUUAUCGAAUUUUCGGCGGACGCCACCAAA | < 1e-05 | – | – | – | –
AUAAAAGCGCCAGAUCUACAGAAAUGUAGUUGAGGAGGAGGAGGUUUAUCGAAUUUUCGGCGGAUGCCUCCAAA | < 1e-05 | < 1e-05 | < 1e-05 | < 1e-05 | –
AUAAAAGCGCCAGAGCUACAGAAAUGUAGUUGACGAGGAGGAUGUUUCUCGAAUUUUCGGCGGAUGCCUCCAAA | < 1e-05 | – | – | – | < 1e-05
AUAAAAGCGCCAGAGCUACAGAAAUGUAGUUGACGAGGAGGAGGUUGAUCGAAUUUUCGAUGGAUGCAUCCAAA | 6.07e-05 ± 2.7e-05 | – | – | 0.000299 ± 9.2e-05 | 0.00013 ± 3.6e-05
AUAAAAGCGCCAGAGCUACAGAAAUGUAGUUGACGAGGAGGAGGUUUAUCGAAUUUUCGGCGGUUGCUUCCAAA | < 1e-05 | – | – | – | –
AUAAAAGCGCCAGAGCUACAGAAAAGUAGUUGACGAGGAGGAGGUUUAUGGAAUUUUCGGCGGAUGCCUUCAAA | 6.43e-05 ± 1.3e-05 | – | 6.03e-05 ± 1.6e-05 | – | –
AUAAAAGCGCCAGAUCUACAGAAAUGUAGUUGACGCGGAGGAGGUGUAUCGAAUUUUCGGCGGAUGCCUCCAAA | < 1e-05 | – | < 1e-05 | – | –
AUAAAAGCGCCAGAGCUACAGAAAUGUAGUUGACGAGGAGGAGGUUAAUCGAAUUUUCGGCGGAUGCCUCCAAA | 0.000718 ± 0.00011 | – | 0.03 ± 0.0073 | – | 0.0116 ± 0.0042
AUAAAAGCGCCAGAGCUACAGAAAUGUAGUUGACGAGGAGGAGGAUUAUCGAAUUUUCGGCGGAUGCCUCCAAA | 0.00128 ± 0.00026 | 0.00318 ± 0.0012 | 0.098 ± 0.043 | 0.025 ± 0.0066 | 0.046 ± 0.019
AUAAAAGCGCCAGAUCUACAGAAAUGUAGUUGAAGAGGAGGAGGUUUAUCGUAUUUUCGGCGGAUGCCUCCAAA | < 1e-05 | – | < 1e-05 | – | –
AUAAAAGCGCCAGAGCUACAGAAAUGUAGUUGACGACGAGGAGGUUUAUCGAAUUUUUGGCGGAUGCCUCCAAA | < 1e-05 | – | – | – | –
AUAAAAGCGCCAGAGCUACAGAAAUGUAUUUGACGAGGAGGAGGUUUAUCGAACUUUCGGCGGAUGCCUCCAAA | 2.83e-05 ± 1.3e-05 | – | – | 0.000321 ± 0.0001 | 0.000796 ± 0.00016
AUAAAAGCGCCAGAGCUACAGAAAUGUAGUUGAAGAGGAGGAGGUUUAUCGAAUUUUCGGCGGAUGCCUCCAAA | < 1e-05 | < 1e-05 | – | < 1e-05 | –
AUAAAAGCGCCAGAGCUACAGAAAUGUAGGUGACGAGGAGGAGGUUUAUCGAAUUUUCGGCGGAUGCCUCCAAA | 0.000265 ± 4.2e-05 | 0.000476 ± 0.00016 | 0.00934 ± 0.002 | 0.00124 ± 0.00035 | –
AUAAAAGCGCCAGAGCUACAGAAAUGUAAUUGACGAGGAGGAGGUUUAUCGAAUUUUCGGCGUAUGCCUCCAAA | < 1e-05 | – | < 1e-05 | – | –
AUAAAAGCGCCAGAUCUACAGAAAUGUAGUUGACGAGGCGCAGGUUUAUCGAAUUUUCGGCGGAUGCCUCCAAA | < 1e-05 | – | – | < 1e-05 | < 1e-05
AUAAAAGCGCCAGAGCUACAGAAAUGUAAUUGACGAGGAGGAGGUUUAUCGAAUUUUCGGCGGAUGCCUCCAAA | 0.000133 ± 3.8e-05 | 0.000309 ± 8.6e-05 | 0.0196 ± 0.0068 | 0.00108 ± 0.00019 | 0.00164 ± 0.00031
